The values that follow come from PMC7439702.

The target of the experiment is AbmU (Streptomyces koyangensis SCSIO 5802). As to the kind of experiment: crystal structure.

For orientation: stoichiometry N means the number of molecules, sites or subunits per partner or assembly. Consider AbmU (enzyme), for which the stoichiometry N was 2.
